Measured values published in US20230146072A1 (Pfizer, published 2023).

Target: T1, mouse GUCY2c (mouse, UniProt Q3UWA6 20-1072)
T1 construct: whole, on cells; 300.19 cells over-expressing mouse GUCY2c, formalin-fixed paraffin-embedded cell pellets
T1 sequence (looked up): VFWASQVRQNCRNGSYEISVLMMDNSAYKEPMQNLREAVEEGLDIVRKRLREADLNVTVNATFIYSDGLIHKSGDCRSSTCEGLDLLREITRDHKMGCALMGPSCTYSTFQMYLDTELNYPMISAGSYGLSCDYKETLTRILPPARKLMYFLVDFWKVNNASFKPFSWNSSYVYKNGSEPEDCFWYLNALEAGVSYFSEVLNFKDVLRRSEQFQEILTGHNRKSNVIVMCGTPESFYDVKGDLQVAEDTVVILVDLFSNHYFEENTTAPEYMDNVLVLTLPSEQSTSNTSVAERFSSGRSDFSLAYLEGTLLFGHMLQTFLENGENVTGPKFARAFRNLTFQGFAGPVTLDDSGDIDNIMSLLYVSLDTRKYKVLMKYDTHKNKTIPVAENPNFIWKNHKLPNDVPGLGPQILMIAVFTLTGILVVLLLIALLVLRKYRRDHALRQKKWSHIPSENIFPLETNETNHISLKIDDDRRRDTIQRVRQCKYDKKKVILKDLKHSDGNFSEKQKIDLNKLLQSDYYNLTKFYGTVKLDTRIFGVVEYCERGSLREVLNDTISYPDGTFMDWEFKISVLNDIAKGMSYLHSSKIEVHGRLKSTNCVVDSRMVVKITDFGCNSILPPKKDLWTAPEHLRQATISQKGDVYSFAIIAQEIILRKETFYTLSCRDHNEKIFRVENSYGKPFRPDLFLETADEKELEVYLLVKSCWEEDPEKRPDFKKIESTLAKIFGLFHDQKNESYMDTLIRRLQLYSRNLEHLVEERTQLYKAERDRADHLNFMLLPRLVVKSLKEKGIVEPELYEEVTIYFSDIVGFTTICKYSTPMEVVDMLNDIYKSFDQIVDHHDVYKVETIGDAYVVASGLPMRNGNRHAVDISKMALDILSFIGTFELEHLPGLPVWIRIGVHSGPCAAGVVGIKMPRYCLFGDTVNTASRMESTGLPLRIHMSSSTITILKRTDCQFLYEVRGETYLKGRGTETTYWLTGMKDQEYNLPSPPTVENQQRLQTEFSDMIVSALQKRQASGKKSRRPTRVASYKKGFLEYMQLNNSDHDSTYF
Experiment: IHC on FFPE pellets of 300.19 cells over-expressing mouse GUCY2c
Protocol: Empty holes were filled with paraffin and the array was allowed to warm at 40 ° C. in an incubator overnight to anneal the donor cores with the recipient block. Five micron sections of the cell microarray were cut, transferred to a water bath and placed on Superfrost Excell microscope slides (Fisher). Slides were allowed to dry overnight. After deparaffinization and rehydration of tissue sections, heat induced epitope retrieval was performed in the Retriever 2100 pressure cooker (Electron Microscopy Sciences) in Borg Decloaker buffer pH 9.5 (Biocare Medical) or pH 6.0 Citrate buffer (Thermo Scientific) followed by cooling to room temperature (RT). Endogenous peroxidase activity was inactivated with Peroxidazed 1 (Biocare Medical) for 10 m. Non-specific protein interactions were blocked for 10 m with Background Punisher (Biocare Medical). Each hybridoma was incubated without dilution for 1 h under both heat induced epitope retrieval conditions. Sections were rinsed in TBS and hybridoma binding was detected with Envision+ Mouse HRP (DAKO) for 30 m. Slides were rinsed in TBS and immunoreactivity was developed with Betazoid DAB Chromogen Kit (Biocare Medical) for 5 m, followed by rinses in distilled water. […] Slides were evaluated by a pathologist to assess immunoreactivity. […]

B1: Anti-GUCY2c antibody Ab288 (antibody, mouse IgG1, kappa, V domains shown)
VH: DVQLQESGPGLVKPSQSLSLTCTVTGYSITSDYAWNWIRQFPGNNLEWMGYISYSGSTRYNPSLKSRISITRDTSKNQFFLQLNSVTSEDTATYYCAREDGYVAMDYWGQGTSVTVSS
VL: DIVLTQSPASLAVSLGQRATISCRASESVEYFGTSFMQWYQQRPGQPPKLLIYAASNVESGVPVRFSGSGSGTDFSLNIHPVEEDDIAMYFCQQSRKVPWTFGGGTNLEIKR
binding result: no binding (tested: 2 µg/ml and 10 µg/ml)
